For two molecules, Kd results are on record in paper PMC4462945 (Molecular Biology of the Cell, 2015).

What all share (assay): pull-down
One assay has as its target T1, GST-FliI LRR (mouse).
T1 sequence (Q9JJ28 whole entry, looked up): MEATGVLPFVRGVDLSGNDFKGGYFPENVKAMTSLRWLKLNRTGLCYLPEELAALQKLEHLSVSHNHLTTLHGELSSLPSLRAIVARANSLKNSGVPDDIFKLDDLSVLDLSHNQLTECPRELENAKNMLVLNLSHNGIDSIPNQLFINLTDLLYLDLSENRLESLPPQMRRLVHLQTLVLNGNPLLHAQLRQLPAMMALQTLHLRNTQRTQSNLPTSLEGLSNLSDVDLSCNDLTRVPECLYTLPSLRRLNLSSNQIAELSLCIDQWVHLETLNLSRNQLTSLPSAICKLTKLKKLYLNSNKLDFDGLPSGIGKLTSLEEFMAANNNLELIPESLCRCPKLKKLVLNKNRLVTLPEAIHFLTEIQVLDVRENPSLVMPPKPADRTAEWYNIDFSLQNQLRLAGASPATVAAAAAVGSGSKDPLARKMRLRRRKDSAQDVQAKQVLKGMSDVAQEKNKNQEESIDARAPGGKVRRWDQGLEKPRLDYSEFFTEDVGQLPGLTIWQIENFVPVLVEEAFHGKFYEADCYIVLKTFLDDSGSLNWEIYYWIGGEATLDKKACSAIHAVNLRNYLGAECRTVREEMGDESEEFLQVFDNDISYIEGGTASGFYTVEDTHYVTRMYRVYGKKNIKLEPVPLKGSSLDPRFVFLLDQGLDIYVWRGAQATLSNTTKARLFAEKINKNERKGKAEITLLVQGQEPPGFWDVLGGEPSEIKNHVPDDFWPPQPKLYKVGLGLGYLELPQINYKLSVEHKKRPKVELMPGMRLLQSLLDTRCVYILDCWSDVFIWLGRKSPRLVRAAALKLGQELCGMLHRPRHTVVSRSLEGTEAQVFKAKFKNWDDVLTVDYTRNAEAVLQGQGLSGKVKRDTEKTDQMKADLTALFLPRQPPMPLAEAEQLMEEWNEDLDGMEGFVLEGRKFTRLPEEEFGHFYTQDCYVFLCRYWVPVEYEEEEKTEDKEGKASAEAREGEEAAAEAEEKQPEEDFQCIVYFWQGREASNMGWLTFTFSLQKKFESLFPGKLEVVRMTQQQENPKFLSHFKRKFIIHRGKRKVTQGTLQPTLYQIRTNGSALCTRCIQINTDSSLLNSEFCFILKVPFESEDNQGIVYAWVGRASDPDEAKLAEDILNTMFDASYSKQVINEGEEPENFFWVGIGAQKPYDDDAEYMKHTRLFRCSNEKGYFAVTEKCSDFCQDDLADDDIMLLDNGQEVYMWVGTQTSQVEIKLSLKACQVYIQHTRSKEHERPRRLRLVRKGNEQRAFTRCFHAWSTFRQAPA

The next assay has as its target T2, GST-FliI GLD 1–6 (mouse, UniProt Q9JJ28 398-1271).
T2 sequence (looked up): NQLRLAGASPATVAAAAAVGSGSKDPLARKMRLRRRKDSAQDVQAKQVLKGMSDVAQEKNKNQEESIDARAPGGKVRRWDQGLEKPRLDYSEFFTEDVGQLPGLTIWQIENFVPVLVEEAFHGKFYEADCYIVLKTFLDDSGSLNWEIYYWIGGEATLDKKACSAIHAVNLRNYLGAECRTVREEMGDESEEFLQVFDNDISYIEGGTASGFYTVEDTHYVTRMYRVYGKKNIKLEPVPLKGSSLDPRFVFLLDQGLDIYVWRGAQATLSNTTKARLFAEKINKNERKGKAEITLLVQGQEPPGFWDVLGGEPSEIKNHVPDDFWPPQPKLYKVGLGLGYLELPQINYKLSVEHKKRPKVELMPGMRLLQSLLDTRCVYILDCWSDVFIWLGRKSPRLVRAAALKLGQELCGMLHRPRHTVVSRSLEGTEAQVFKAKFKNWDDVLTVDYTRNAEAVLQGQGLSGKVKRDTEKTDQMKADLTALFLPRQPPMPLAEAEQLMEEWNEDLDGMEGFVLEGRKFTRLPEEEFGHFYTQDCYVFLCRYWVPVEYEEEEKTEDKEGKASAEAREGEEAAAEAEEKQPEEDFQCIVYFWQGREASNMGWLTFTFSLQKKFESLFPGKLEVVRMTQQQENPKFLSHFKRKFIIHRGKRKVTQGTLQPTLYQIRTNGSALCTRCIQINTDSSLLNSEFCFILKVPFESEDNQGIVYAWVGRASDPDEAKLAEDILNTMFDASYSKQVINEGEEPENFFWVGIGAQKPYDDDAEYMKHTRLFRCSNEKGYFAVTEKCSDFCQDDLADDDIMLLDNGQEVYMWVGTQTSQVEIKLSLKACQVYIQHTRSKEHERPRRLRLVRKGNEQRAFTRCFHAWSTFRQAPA

The target in another assay is T3, GST-FliI GLD 2–6 (mouse, UniProt Q9JJ28 619-1271).
T3 sequence (looked up): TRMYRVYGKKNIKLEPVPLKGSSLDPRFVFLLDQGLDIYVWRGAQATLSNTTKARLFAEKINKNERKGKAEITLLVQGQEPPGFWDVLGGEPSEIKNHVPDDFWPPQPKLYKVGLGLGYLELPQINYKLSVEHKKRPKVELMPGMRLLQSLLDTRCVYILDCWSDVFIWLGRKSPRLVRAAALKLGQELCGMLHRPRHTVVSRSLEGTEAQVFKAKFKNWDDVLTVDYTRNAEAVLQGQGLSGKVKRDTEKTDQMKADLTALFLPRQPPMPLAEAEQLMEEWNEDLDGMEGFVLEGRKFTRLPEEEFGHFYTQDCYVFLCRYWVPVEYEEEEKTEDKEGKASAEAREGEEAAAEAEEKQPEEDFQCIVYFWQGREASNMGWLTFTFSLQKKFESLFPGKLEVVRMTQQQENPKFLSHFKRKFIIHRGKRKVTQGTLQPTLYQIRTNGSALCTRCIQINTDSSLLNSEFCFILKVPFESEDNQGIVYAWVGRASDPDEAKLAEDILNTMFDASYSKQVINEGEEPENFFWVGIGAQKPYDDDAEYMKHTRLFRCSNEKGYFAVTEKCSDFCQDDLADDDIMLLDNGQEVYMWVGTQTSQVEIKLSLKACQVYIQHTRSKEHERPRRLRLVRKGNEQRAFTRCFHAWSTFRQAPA

In general, Kd refers to the free concentration of one partner at which half of the binding sites on the other are occupied at equilibrium, for simple one-to-one binding. Read a low Kd as a tighter complex. Take “NMMIIA rods (residues 1338–1960) (from UniProt P35579 1338-1960) (domain or fragment)”: the dissociation constant (Kd) in the assay with GST-FliI LRR (mouse) amounted to 5.07 µM.

B1: NMMIIA rods (residues 1338–1960) (domain or fragment, UniProt P35579 1338-1960, looked up)
chain: KNSFREQLEEEEEAKHNLEKQIATLHAQVADMKKKMEDSVGCLETAEEVKRKLQKDLEGLSQRHEEKVAAYDKLEKTKTRLQQELDDLLVDLDHQRQSACNLEKKQKKFDQLLAEEKTISAKYAEERDRAEAEAREKETKALSLARALEEAMEQKAELERLNKQFRTEMEDLMSSKDDVGKSVHELEKSKRALEQQVEEMKTQLEELEDELQATEDAKLRLEVNLQAMKAQFERDLQGRDEQSEEKKKQLVRQVREMEAELEDERKQRSMAVAARKKLEMDLKDLEAHIDSANKNRDEAIKQLRKLQAQMKDCMRELDDTRASREEILAQAKENEKKLKSMEAEMIQLQEELAAAERAKRQAQQERDELADEIANSSGKGALALEEKRRLEARIAQLEEELEEEQGNTELINDRLKKANLQIDQINTDLNLERSHAQKNENARQQLERQNKELKVKLQEMEGTVKSKYKASITALEAKIAQLEEQLDNETKERQAACKQVRRTEKKLKDVLLQVDDERRNAEQYKDQADKASTRLKQLKRQLEEAEEEAQRANASRRKLQRELEDATETADAMNREVSSLKNKLRRGDLPFVVPRRMARKGAGDGSDEEVDGKADGAEAKPAE
B1: the values for the equilibrium dissociation constant (Kd) with GST-FliI GLD 1–6 and in the assay with GST-FliI GLD 2–6 were 146 nM and 858 nM, respectively.
